Data reported in the Human Domainome abundance scans (Beltran et al. 2025).
± gives the uncertainty stated by the source.

B1: POU domain, class 3, transcription factor 2, residues 262 to 338; numbered along this chain, P20265 (parent)
chain: EDTPTSDDLEQFAKQFKQRRIKLGFTQADVGLALGTLYGNVFSQTTICRFEALQLSFKNMCKLKPLLNKWLEEADSS

Variants of: B1
Experiment: abundance fitness (aPCA) (normalised: wild type 0, dead -1); higher = more abundant; growth selection in yeast, the domain comes from the species named
Conditions: Homo sapiens

In order of falling abundance fitness:
1. EDTPTSDDLEQFAKQFKQRRIKLGFTQADVGLALGTLYGNVFSQTTICRFEALQLSFKDMCKLKPLLNKWLEEADSS  0.105 ± 0.06
2. EDTPTSDDLEQFAKQFKQRRIKLGFTQADVGLALGTLYGNVFSQTTICRFEALQLSFKIMCKLKPLLNKWLEEADSS  0.092 ± 0.079
3. EDTPTSDDLEQFAKQFKQRRIKLGFTQADVGLALGTLYGNVFSQTTICRFEALQLSFENMCKLKPLLNKWLEEADSS  0.069 ± 0.039
4. EDTPTSDDLEQFAKQFKQRRIKLGFTQADVGLALGTLYGNVFSQTTICRFEALQLSFKRMCKLKPLLNKWLEEADSS  0.059 ± 0.029
5. EDTPTSDDLEQFAKQFKQRRIKLGFTQADVGLALGTLYGNVFSQTTICRFEALQLSYKNMCKLKPLLNKWLEEADSS  0.056 ± 0.11
6. EDTPTSDDLEQFAKQFKQRRIKLGFTQADVGLALGTLYGNVFSQTTICRFEALQLSFKMMCKLKPLLNKWLEEADSS  0.049 ± 0.045
7. EDTPTSDDLEQFAKQFKQRRIKLGFTQADVGLALGTLYGNVFSQTTICRFEALQLPFKNMCKLKPLLNKWLEEADSS  0.044 ± 0.047
8. EDTPTSDDLEQFAKQFKQRRIKLGFTQADVGLALGTLYGNVFSQTTICRFEALQLSFKVMCKLKPLLNKWLEEADSS  0.041 ± 0.033
9. EDTPTSDDLEQFAKQFKQRRIKLGFTQADVGLALGTLYGNVFSQTTICRFEALQLSFNNMCKLKPLLNKWLEEADSS  0.039 ± 0.18
10. EDTPTSDDLEQFAKQFKQRRIKLGFTQADVGLALGTLYGNVFSQTTICRFEALQLSNKNMCKLKPLLNKWLEEADSS  0.031 ± 0.063
11. EDTPTSDDLEQFAKQFKQRRIKLGFTQADVGLALGTLYGNVFSQTTICRFEALQLSFKLMCKLKPLLNKWLEEADSS  0.029 ± 0.042
12. EDTPTSDDLEQFAKQFKQRRIKLGFTQADVGLALGTLYGNVFSQTTICRFEALQLSKKNMCKLKPLLNKWLEEADSS  0.026 ± 0.042
13. EDTPTSDDLEQFAKQFKQRRIKLGFTQADVGLALGTLYGNVFSQTTICRFEALQLSFQNMCKLKPLLNKWLEEADSS  0.024 ± 0.042
14. EDTPTSDDLEQFAKQFKQRRIKLGFTQADVGLALGTLYGNVFSQTTICRFEALQLSRKNMCKLKPLLNKWLEEADSS  0.02 ± 0.025
15. EDTPTSDDLEQFAKQFKQRRIKLGFTQADVGLALGTLYGNVFSQTTICRFEALQLSFKHMCKLKPLLNKWLEEADSS  0.017 ± 0.065
16. EDTPTSDDLEQFAKQFKQRRIKLGFTQADVGLALGTLYGNVFSQTTICRFEALQLSTKNMCKLKPLLNKWLEEADSS  0.01 ± 0.036
17. EDTPTSDDLEQFAKQFKQRRIKLGFTQADVGLALGTLYGNVFSQTTICRFEALQLSFKAMCKLKPLLNKWLEEADSS  0.007 ± 0.037
18. EDTPTSDDLEQFAKQFKQRRIKLGFTQADVGLALGTLYGNVFSQTTICRFEALQLSFKSMCKLKPLLNKWLEEADSS  -0.001 ± 0.039
19. EDTPTSDDLEQFAKQFKQRRIKLGFTQADVGLALGTLYGNVFSQTTICRFEALQLSFKQMCKLKPLLNKWLEEADSS  -0.001 ± 0.044
20. EDTPTSDDLEQFAKQFKQRRIKLGFTQADVGLALGTLYGNVFSQTTICRFEALQLSFKFMCKLKPLLNKWLEEADSS  -0.014 ± 0.086
21. EDTPTSDDLEQFAKQFKQRRIKLGFTQADVGLALGTLYGNVFSQTTICRFEALQLSHKNMCKLKPLLNKWLEEADSS  -0.015 ± 0.06
22. EDTPTSDDLEQFAKQFKQRRIKLGFTQADVGLALGTLYGNVFSQTTICRFEALQLSQKNMCKLKPLLNKWLEEADSS  -0.022 ± 0.042
23. EDTPTSDDLEQFAKQFKQRRIKLGFTQADVGLALGTLYGNVFSQTTICRFEALQLSFKKMCKLKPLLNKWLEEADSS  -0.022 ± 0.039
24. EDTPTSDDLEQFAKQFKQRRIKLGFTQADVGLALGTLYGNVFSQTTICRFEALQLSVKNMCKLKPLLNKWLEEADSS  -0.033 ± 0.028
25. EDTPTSDDLEQFAKQFKQRRIKLGFTQADVGLALGTLYGNVFSQTTICRFEALQLSFGNMCKLKPLLNKWLEEADSS  -0.033 ± 0.029
26. EDTPTSDDLEQFAKQFKQRRIKLGFTQADVGLALGTLYGNVFSQTTICRFEALQLSFKCMCKLKPLLNKWLEEADSS  -0.042 ± 0.056
27. EDTPTSDDLEQFAKQFKQRRIKLGFTQADVGLALGTLYGNVFSQTTICRFEALQLSFANMCKLKPLLNKWLEEADSS  -0.042 ± 0.036
28. EDTPTSDDLEQFAKQFKQRRIKLGFTQADVGLALGTLYGNVFSQTTICRFEALQLSMKNMCKLKPLLNKWLEEADSS  -0.046 ± 0.039
29. EDTPTSDDLEQFAKQFKQRRIKLGFTQADVGLALGTLYGNVFSQTTICRFEALQLSIKNMCKLKPLLNKWLEEADSS  -0.049 ± 0.063
30. EDTPTSDDLEQFAKQFKQRRIKLGFTQADVGLALGTLYGNVFSQTTICRFEALQLSFKTMCKLKPLLNKWLEEADSS  -0.051 ± 0.043
31. EDTPTSDDLEQFAKQFKQRRIKLGFTQADVGLALGTLYGNVFSQTTICRFEALQLSSKNMCKLKPLLNKWLEEADSS  -0.053 ± 0.033
32. EDTPTSDDLEQFAKQFKQRRIKLGFTQADVGLALGTLYGNVFSQTTICRFEALQLSFSNMCKLKPLLNKWLEEADSS  -0.053 ± 0.051
33. EDTPTSDDLEQFAKQFKQRRIKLGFTQADVGLALGTLYGNVFSQTTICRFEALQLSFRNMCKLKPLLNKWLEEADSS  -0.058 ± 0.031
34. EDTPTSDDLEQFAKQFKQRRIKLGFTQADVGLALGTLYGNVFSQTTICRFEALQLSPKNMCKLKPLLNKWLEEADSS  -0.063 ± 0.046
35. EDTPTSDDLEQFAKQFKQRRIKLGFTQADVGLALGTLYGNVFSQTTICRFEALQLSEKNMCKLKPLLNKWLEEADSS  -0.071 ± 0.034
36. EDTPTSDDLEQFAKQFKQRRIKLGFTQADVGLALGTLYGNVFSQTTICRFEALQLSFKWMCKLKPLLNKWLEEADSS  -0.074 ± 0.04
37. EDTPTSDDLEQFAKQFKQRRIKLGFTQADVGLALGTLYGNVFSQTTICRFEALQLSLKNMCKLKPLLNKWLEEADSS  -0.077 ± 0.03
38. EDTPTSDDLEQFAKQFKQRRIKLGFTQADVGLALGTLYGNVFSQTTICRFEALQLSFDNMCKLKPLLNKWLEEADSS  -0.088 ± 0.091
39. EDTPTSDDLEQFAKQFKQRRIKLGFTQADVGLALGTLYGNVFSQTTICRFEALQLDFKNMCKLKPLLNKWLEEADSS  -0.093 ± 0.065
40. EDTPTSDDLEQFAKQFKQRRIKLGFTQADVGLALGTLYGNVFSQTTICRFEALQLGFKNMCKLKPLLNKWLEEADSS  -0.101 ± 0.03
41. EDTPTSDDLEQFAKQFKQRRIKLGFTQADVGLALGTLYGNVFSQTTICRFEALQLSDKNMCKLKPLLNKWLEEADSS  -0.105 ± 0.066
42. EDTPTSDDLEQFAKQFKQRRIKLGFTQADVGLALGTLYGNVFSQTTICRFEALQLSFVNMCKLKPLLNKWLEEADSS  -0.113 ± 0.039
43. EDTPTSDDLEQFAKQFKQRRIKLGFTQADVGLALGTLYGNVFSQTTICRFEALQLSFMNMCKLKPLLNKWLEEADSS  -0.12 ± 0.055
44. EDTPTSDDLEQFAKQFKQRRIKLGFTQADVGLALGTLYGNVFSQTTICRFEALQLEFKNMCKLKPLLNKWLEEADSS  -0.128 ± 0.043
45. EDTPTSDDLEQFAKQFKQRRIKLGFTQADVGLALGTLYGNVFSQTTICRFEALQLKFKNMCKLKPLLNKWLEEADSS  -0.129 ± 0.047
46. EDTPTSDDLEQFAKQFKQRRIKLGFTQADVGLALGTLYGNVFSQTTICRFEALQLSFKGMCKLKPLLNKWLEEADSS  -0.13 ± 0.029
47. EDTPTSDDLEQFAKQFKQRRIKLGFTQADVGLALGTLYGNVFSQTTICRFEALQLTFKNMCKLKPLLNKWLEEADSS  -0.135 ± 0.041
48. EDTPTSDDLEQFAKQFKQRRIKLGFTQADVGLALGTLYGNVFSQTTICRFEALQLNFKNMCKLKPLLNKWLEEADSS  -0.145 ± 0.078
49. EDTPTSDDLEQFAKQFKQRRIKLGFTQADVGLALGTLYGNVFSQTTICRFEALQLSFFNMCKLKPLLNKWLEEADSS  -0.163 ± 0.15
50. EDTPTSDDLEQFAKQFKQRRIKLGFTQADVGLALGTLYGNVFSQTTICRFEALQLSFLNMCKLKPLLNKWLEEADSS  -0.163 ± 0.042
51. EDTPTSDDLEQFAKQFKQRRIKLGFTQADVGLALGTLYGNVFSQTTICRFEALQLSWKNMCKLKPLLNKWLEEADSS  -0.169 ± 0.031
52. EDTPTSDDLEQFAKQFKQRRIKLGFTQADVGLALGTLYGNVFSQTTICRFEALQLSFWNMCKLKPLLNKWLEEADSS  -0.235 ± 0.044
53. EDTPTSDDLEQFAKQFKQRRIKLGFTQADVGLALGTLYGNVFSQTTICRFEALQLSGKNMCKLKPLLNKWLEEADSS  -0.246 ± 0.028
54. EDTPTSDDLEQFAKQFKQRRIKLGFTQADVGLALGTLYGNVFSQTTICRFEALQYSFKNMCKLKPLLNKWLEEADSS  -0.285 ± 0.062
55. EDTPTSDDLEQFAKQFKQRRIKLGFTQADVGLALGTLYGNVFSQTTICRFEALQLCFKNMCKLKPLLNKWLEEADSS  -0.303 ± 0.056
56. EDTPTSDDLEQFAKQFKQRRIKLGFTQADVGLALGTLYGNVFSQTTICRFEALQLSFCNMCKLKPLLNKWLEEADSS  -0.321 ± 0.096
57. EDTPTSDDLEQFAKQFKQRRIKLGFTQADVGLALGTLYGNVFSQTTICRFEALQLAFKNMCKLKPLLNKWLEEADSS  -0.345 ± 0.043
58. EDTPTSDDLEQFAKQFKQRRIKLGFTQADVGLALGTLYGNVFSQTTICRFEALQLRFKNMCKLKPLLNKWLEEADSS  -0.366 ± 0.034
59. EDTPTSDDLEQFAKQFKQRRIKLGFTQADVGLALGTLYGNVFSQTTICRFEALQLQFKNMCKLKPLLNKWLEEADSS  -0.385 ± 0.064
60. EDTPTSDDLEQFAKQFKQRRIKLGFTQADVGLALGTLYGNVFSQTTICRFEALQLSFHNMCKLKPLLNKWLEEADSS  -0.486 ± 0.26
61. EDTPTSDDLEQFAKQFKQRRIKLGFTQADVGLALGTLYGNVFSQTTICRFEALQSSFKNMCKLKPLLNKWLEEADSS  -0.504 ± 0.045
62. EDTPTSDDLEQFAKQFKQRRIKLGFTQADVGLALGTLYGNVFSQTTICRFEALQQSFKNMCKLKPLLNKWLEEADSS  -0.506 ± 0.064
63. EDTPTSDDLEQFAKQFKQRRIKLGFTQADVGLALGTLYGNVFSQTTICRFEALQLSCKNMCKLKPLLNKWLEEADSS  -0.516 ± 0.068
64. EDTPTSDDLEQFAKQFKQRRIKLGFTQADVGLALGTLYGNVFSQTTICRFEALQLSFKPMCKLKPLLNKWLEEADSS  -0.559 ± 0.092
65. EDTPTSDDLEQFAKQFKQRRIKLGFTQADVGLALGTLYGNVFSQTTICRFEALQVSFKNMCKLKPLLNKWLEEADSS  -0.573 ± 0.039
66. EDTPTSDDLEQFAKQFKQRRIKLGFTQADVGLALGTLYGNVFSQTTICRFEALQTSFKNMCKLKPLLNKWLEEADSS  -0.583 ± 0.069
67. EDTPTSDDLEQFAKQFKQRRIKLGFTQADVGLALGTLYGNVFSQTTICRFEALQLLFKNMCKLKPLLNKWLEEADSS  -0.633 ± 0.06
68. EDTPTSDDLEQFAKQFKQRRIKLGFTQADVGLALGTLYGNVFSQTTICRFEALQWSFKNMCKLKPLLNKWLEEADSS  -0.645 ± 0.043
69. EDTPTSDDLEQFAKQFKQRRIKLGFTQADVGLALGTLYGNVFSQTTICRFEALQLIFKNMCKLKPLLNKWLEEADSS  -0.662 ± 0.14
70. EDTPTSDDLEQFAKQFKQRRIKLGFTQADVGLALGTLYGNVFSQTTICRFEALQLWFKNMCKLKPLLNKWLEEADSS  -0.801 ± 0.081
71. EDTPTSDDLEQFAKQFKQRRIKLGFTQADVGLALGTLYGNVFSQTTICRFEALQLMFKNMCKLKPLLNKWLEEADSS  -0.81 ± 0.15
